Laboratory results as given in PMC4396693, “Structural Basis of Latrophilin-FLRT Interaction” (Structure(London, England:1993), 2015).
Changes are numbered by the printed parent chain. Names and notes keep the numbering of the source.

T1: murine LPHN3 olfactomedin domain (LPHN3^Olf, residues 202-463) (murine, UniProt Q80TS3 202-463)
T1 chain: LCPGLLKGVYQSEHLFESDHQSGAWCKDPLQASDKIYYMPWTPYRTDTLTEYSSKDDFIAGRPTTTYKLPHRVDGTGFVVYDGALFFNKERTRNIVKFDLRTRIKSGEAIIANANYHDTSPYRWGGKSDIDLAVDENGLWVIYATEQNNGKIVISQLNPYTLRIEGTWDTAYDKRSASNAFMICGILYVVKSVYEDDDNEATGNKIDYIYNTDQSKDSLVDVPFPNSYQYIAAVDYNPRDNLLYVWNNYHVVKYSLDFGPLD

T2: murine LPHN3 olfactomedin domain (LPHN3^Olf, residues 202-463), Q80TS3
T2 chain: T1 chain

T3: murine FLRT2 full ectodomain, wild type (residues 35-540) (murine, UniProt Q8BLU0 35-540)
T3 construct: Fibronectin leucine-rich repeat transmembrane protein 2 (FLRT2), mouse, full-length ectodomain, residues 35-540; also called FLRT2 ectodomain; source: HEK293S GlnTI- cells, transiently expressed
T3 sequence (looked up): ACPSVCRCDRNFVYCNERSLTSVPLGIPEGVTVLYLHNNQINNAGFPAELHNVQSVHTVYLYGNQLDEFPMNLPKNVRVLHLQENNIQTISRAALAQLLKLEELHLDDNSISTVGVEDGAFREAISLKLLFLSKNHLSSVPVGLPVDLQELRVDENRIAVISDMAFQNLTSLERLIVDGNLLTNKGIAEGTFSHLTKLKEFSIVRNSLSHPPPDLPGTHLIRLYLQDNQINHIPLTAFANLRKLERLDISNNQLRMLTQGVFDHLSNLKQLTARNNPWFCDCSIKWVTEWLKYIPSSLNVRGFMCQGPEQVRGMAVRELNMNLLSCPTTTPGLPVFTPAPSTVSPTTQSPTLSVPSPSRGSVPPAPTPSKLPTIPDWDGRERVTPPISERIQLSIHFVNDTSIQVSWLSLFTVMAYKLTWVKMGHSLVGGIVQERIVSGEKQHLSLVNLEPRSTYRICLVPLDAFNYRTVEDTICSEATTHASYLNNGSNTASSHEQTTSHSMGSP

B1: murine FLRT2 full ectodomain, wild type (residues 35-540), Q8BLU0 UF (protein)
chain: T3 sequence (looked up) with H136N
B2: murine FLRT2 full ectodomain, wild type (residues 35-540) (domain or fragment)
chain: T3 sequence (looked up)
B3: murine LPHN3^Lec-Olf, wild type, biotinylated at a C-terminal Avi-Tag (domain or fragment, UniProt Q80TS3 92-463, looked up)
chain: PIPMAVVRRELSCESYPIELRCPGTDVIMIESANYGRTDDKICDSDPAQMENIRCYLPDAYKIMSQRCNNRTQCAVVAGPDVFPDPCPGTYKYLEVQYECVPYKVEQKVFLCPGLLKGVYQSEHLFESDHQSGAWCKDPLQASDKIYYMPWTPYRTDTLTEYSSKDDFIAGRPTTTYKLPHRVDGTGFVVYDGALFFNKERTRNIVKFDLRTRIKSGEAIIANANYHDTSPYRWGGKSDIDLAVDENGLWVIYATEQNNGKIVISQLNPYTLRIEGTWDTAYDKRSASNAFMICGILYVVKSVYEDDDNEATGNKIDYIYNTDQSKDSLVDVPFPNSYQYIAAVDYNPRDNLLYVWNNYHVVKYSLDFGPLD
modifications: biotin on the C-terminal Avi-Tag (enzymatic)
notes: Latrophilin 3 (LPHN3), mouse, lectin and olfactomedin-like domains; residues 92-463 are stated for the crystallization construct; Limits 92-463 are printed for the crystallization construct; the limits of the Avi-tagged construct may be in the Supplemental Experimental Procedures; also called LPHN^Lec-Olf; not shown: Avi-Tag, C-terminal, kept
B4: murine LPHN3^Lec-Olf mutant LPHN3^LF(4) (P244N+R246T), biotinylated at a C-terminal Avi-Tag (domain or fragment, UniProt Q80TS3 92-463, looked up)
chain: B3 chain with P153N, R155T
modifications: biotin on the C-terminal Avi-Tag (enzymatic)
notes: Latrophilin 3 (LPHN3), mouse, lectin and olfactomedin-like domains; residues 92-463 are stated for the crystallization construct; artificial N-linked glycosylation site; not shown: Avi-Tag, C-terminal, kept
B5: murine LPHN3^Lec-Olf mutant LPHN3^LF(3) (T267N+K269T), biotinylated at a C-terminal Avi-Tag (domain or fragment, UniProt Q80TS3 92-463, looked up)
chain: B3 chain with T176N, K178T
modifications: biotin on the C-terminal Avi-Tag (enzymatic)
notes: as for B4
B6: murine LPHN3 olfactomedin domain (LPHN3^Olf, residues 202-463) (domain or fragment, UniProt Q80TS3 202-463, looked up)
chain: T1 chain
notes: Latrophilin 3 (LPHN3), mouse, olfactomedin-like domain, residues 202-463; also called LPHN3 Olf domain; olfactomedin domain of murine LPHN3; source: kifunensine-treated HEK293T cells, transiently expressed, purified

Tests used:
[1] = target: T1, murine LPHN3 olfactomedin domain …; assay: SPR
[2] = target: murine FLRT2 full ectodomain, wild type (residues 35-540) (murine) (UniProt Q8BLU0); assay: SPR; one or the other of the two set-ups (FLRT2 ectodomain on CM5 with LPHN3 Olf as analyte, or LPHN3^Lec-Olf on streptavidin with FLRT2 ectodomain as analyte); the text does not say which value belongs to which; 25°C, PBS pH 7.5
[3] = target: T2, murine LPHN3 olfactomedin domain …; assay: SPR; details: chain shown with the change
[4] = target: B2; assay: SPR
[5] = target: T3, murine FLRT2 full ectodomain, wild type …; assay: SPR; biotinylated wild-type or mutant LPHN3^Lec-Olf on streptavidin-coated Biacore chips, FLRT2 ectodomain injected as analyte; equilibrium, 25°C, PBS pH 7.5, 0.005% polysorbate 20; 1:1 model; details: both partners purified
[6] = target: T3, murine FLRT2 full ectodomain, wild type …; assay: SPR; FLRT2 ectodomains (wild type, UF, FF) amine-coupled to a CM5 Biacore chip, LPHN3 Olf domain injected as analyte; equilibrium, 25°C, PBS pH 7.5, 0.005% polysorbate 20; 1:1 model; details: both partners purified
[7] = maximum response at the highest LPHN3 Olf concentration plotted (about 2 µM), parent: est. 390, read off a plot

murine FLRT2 full ectodomain, wild type (residues 35-540) (from UniProt Q8BLU0) FF
response [1, 7]: -0 RU

wild-type LPHN3 proteins
Kd [2]: 18 to 40 nM

B1
Kd ([3]; FLRT2 ectodomains immobilized on a CM5 Biacore chip, LPHN3 olfactomedin domain injected as analyte, 1:1 binding model, parent: 40 nM): 15 nM | response [3, 7]: 390 RU

B2
Kd [1]: 40 nM

B3
Kd [4]: 18 nM | binding result [5]: binds

B4
binding result [5]: binds

B5
binding result [5]: binds

B6
binding result [6]: binds
